This assay deals with human TGF-β2 (human). In words: SPR; Biacore 2000; biotinylated ligands immobilised on streptavidin-coated CM5 chip, TGFR-3-ZP variants as analytes; 25°C, HBS500 (10 mM HEPES pH 7.4, 500 mM NaCl, 3.4 mM EDTA, 0.005% P20); apparent affinities from equilibrium binding.

Changes are numbered by the printed parent chain.

B1: TGFR-3-ZP(234) (domain or fragment)
chain: REPEEVQGGVNIALSVKCDNEKMVVAVDKDSFQTNGYSGMELTLLDPSCKAKMNGTHFVLESPLNGCGTRHRRSAPDGVVYYNSIVVQAPSPGDSSGWPDGYEDLESGDNGFPGDTDEGETAPLSRAGVVVFQCSLRQLRSPSGFQDQLDGQATFNMELYNTDLFLVPSPGVFSVAENEHVYVEVSVTKADQDLGFAIQTCFISPYSNPDRMSDYTIIENICPKDDSVKFYSSKRVHFPIPHAEVDKKRFSFVFKSVFQTSLLFLHCELTLCSRNKGSQKLPKCVTPDDACTSLDATMIWTMMQNKKTFTKPLAVVLQVDYKENVPNMKESSPVPPPPQIFHGLD
modifications: one remaining potential N-glycosylation site (N491)
With B1, the Kd came to 2700 nM.

B2: murine TGFR-3-ZP (recombinant ZP domain of TGF-β receptor type 3, residues 438-782, including the EHP) (domain or fragment)
chain: B1 chain with Q133N, Q152N, Q259N
modifications: secretory glycoprotein; four potential N-glycosylation sites (positions 491, 570, 589 and 696)
With B2, the Kd worked out at 2400 nM.
